From patent publication US20070134221A1 (published 2007)

How the values were obtained:
Test in all cases: cell-based or functional assay
[1] = target: envelope glycoprotein of virus isolate HIV-1 NL4-3 (HIV-1 NL4-3)
[2] = target: envelope glycoprotein of virus isolate HIV-1 UG270 (HIV-1 UG270)
[3] = target: envelope glycoprotein of virus isolate HIV-1 DJ258 (HIV-1 DJ258)
[4] = target: envelope glycoprotein of virus isolate HIV-1 JFRL (HIV-1 JFRL)
[5] = target: envelope glycoprotein of virus isolate HIV-1 Case C 7/86 (HIV-1 Case C 7/86)
[6] = target: envelope glycoprotein of virus isolate HIV-1 CM.235 (HIV-1 CM.235)
[7] = target: envelope glycoprotein of virus isolate HIV-1 BZ162 (HIV-1 BZ162)
[8] = target: envelope glycoprotein of virus isolate HIV-1 94ZW103 (HIV-1 94ZW103)

Binder	IC50 (nM), Human PBMC Infectivity Assays [1] [nM]	IC50 (nM), Human PBMC Infectivity Assays [2] [nM]	IC50 (nM), Human PBMC Infectivity Assays [3] [nM]	IC50 (nM), Human PBMC Infectivity Assays [4] [nM]	IC50 (nM), Human PBMC Infectivity Assays [5] [nM]	IC50 (nM), Human PBMC Infectivity Assays [6] [nM]	IC50 (nM), Human PBMC Infectivity Assays [7] [nM]	IC50 (nM), Human PBMC Infectivity Assays [8] [nM]
C52F peptide (peptide) peptide: NHTTWMEWDREINNYTSLIHSLIEESQNLQEKNEQELLELDKWASLWNWFNIKIK	23	68	9	5	49	11	2	4
C52L peptide (peptide) peptide: NHTTWMEWDREINNYTSLIHSLFEESQNLQEKAEQELFELDKWASLWNWFNIKIK	20	61	11	6	17		3	3
